These results are taken from a protein production outcome set (Wang et al. 2014).

This data set is described as follows: label from the status in PepcDB records.

In the case of “MIESRRFVSDVMITFIASLVNIIISFPISVVIGRYLGVEDLGAYRLVFSIYGLSLLFANAGIPAAVIKQISEIKEDPKSTVKVISSSFFTSSLLGIFFLIFYLLFAETLSNIFGTPELADLIRIISLSFPFSVTGSTMLATLNGFRDMKKHATAILIQSVLMLFFTILSITFGYGVNGAVGASVISSIGYCVYLLRYLGKYIKIINFSDAVHYSKSMITFGLQTVVANAVNLINFQADTIMVGYFLTKTDVGFYSVAVLLAKLLWLIPDSIQKITYPLISEHYNNSGTEYINRAIETIMKYTMCISIVIGSGMIFYGEGIITSIYGASFIESVNPYYILIVGTMIFSIVKCVNSLFASIGRVDLFAKIPTYSAAVNILLNLVLIPIYHINGAAIATSTSLLIYVLVMIYYMKKLVNIHINVIWYSKAIFLFAMLIIINYILSLFTPFNSSGILTVSLGCLLLWIYILEPSDRVFFLSLVTKLKSLSLN”, the protein production result was “failed”.
Next, “MIETTKGGSGSYPIKTIVVLVQENRSFDHTLGWFKELNREIDGVTKSDPKSNTVSSSDTNSLRVVFGDQSQYVNPDPGHSIQDIYEQVFGKPWDSGKPDPNPGHPNMSGFAQNAERNKKGMSSAVMNGFKPNALPVYKELVQNFAICDRWFASVPASTQPNRLYVHSATSHGATSNDKKLLLEGFPQKTIFESLDEAGFSFGIYYQFPPSTLFYRNLRKLKYLTHFHQYGIQFKKDCKEGKLPNYVVVEQRWFDLLSTPANDDHPSHDVSEGQKLVKEVYEALRSSPQWNEILFIITYDEHGGFYDHVPTPVDGVPNPDGILGPPPYNFEFNRLGVRVPTFFISPWIEPGTVIHGPNGPYPRSQYEHSSIPATVKTIFKLKDFLSKRDSWAGTFESVITRDSPRQDCPETLSTPIKLRGTMAKENAQLSEFQEDLVIMAAGLKGDYKNEELIHKLCKETCVADASKYVTNAFEKFLEESRKARDRGCDENDIVYCVDDDDDHVVIPPQSHSEASNAAAQPKTQTSFFNKLFSCFIRHD”: “failed”; “MIFAFVFDRDYYSLGLVLLALFSAQSPYGGLSLEIYLKSCRIQQNYTRLNTMKLRLPHAPYVANKIALDLVSSGYIELGSNMEKISQIAKHFLEENIKKEAALEEKVRLLLEANLEEIEFLRVDERQFFWMAKKKLAEEEGFILAKDDRYSHLSHQILDELIKEEVIDFGVSDTIIKNVIFKAIDGYVKIYESIEDVVIEKIENYKRKIIAGTEEYDMVFEKLYEEELKKRGFL”: “failed”.
Under “MIFKKEPKRYTVEDTIPYLRLLKSGICQLDEKHFSKSIAFQDINYQLALDEDRDLIFNQFANFLNSFDPSISIEFSYVNQLGRNEEMKSAIQIPDKKDGFDDIRFEFREMLKSQIVKGNNGLKKSKYVTFTVEADNLEQATSKLERLEIDILSNLKSMGVRAESLNGEERLKILHDVLNPNKTFEFSYKDLKKRESTKTYIVPDEFNFTPSRYFKFGKFIGATSHFQILASELSDRMLSEFLDIDDNINISFHIRAIDQSEAIKMVKRKNTDIDKMKIEENKKAVRSGYDMDILPSDLITYGEDVKSLLKDLQTRDERMFVVSIVFMNFARTVQKLDNTIAQISSIANKHNCKLKRLDHSQEQGLVSMLPLGVNKIEIDRGLTSSSTAVFMPFTTEELFINSSNSLYYGLNALSHNLIMADRKKLKNPNGLILGTPGSGKSFSAKREMANAILVTDDDVIICDPEGEYGNLVRQFKGEVIKVSSKSKDYLNPLDINMNYGDGDAPLKDKANFIMSMLELVVGGSGLTAEEKSVIDRCLPKIYEKYFEHPTPDNMPILQDLYDMLKGQEEKVGKKLATEMEIYVSGSLNVFNHRSNVDLNKKLLCFDIKELGSQLKKIGMLVIQDQVWNKVSQNRGNKATRYYIDEFHLLLKDEQTASYSVEIWKRFRKWGGIPTGITQNVKDLLMSKEIENIFDNTDFVLMLNQASGDREILARKLKISLPQLRYVTNSNEGEGLLFFGNTIVPFLDKFPKDTILYQKMTTKPEEVRLEHHHHHH” stands “not failed”; under “MIFLSTVLILCCTWYFLKFLAHFSRKIHDEVRKLSVYTHFLSKWLQSAPATFTYTAIFCAFTLVQRTAPQHLINILTNHSSTSIARVSDKPISTFFDSAFWVADNGAGLLIYVVLFWTVIAWAERKYGSPRMIVITLSGHILASLTTIFLELWAINSGRAPSSLAMATDVGVSYILVAGCAAAILIMRKRMFYIGLIILGLFILLPLFVEHSIWDMGHLFAAFFGFISARLLLKLSPVRTVSSPYELLLKCRSELSNK”, “failed”; under “MIFMNMIFVDREKELQTLMQRLNSPTFELVIVYGRRRIGKTSLILRAISGRNDSVYYYATERNNLERFREVAQRKFPEVRYAREDWESLLHFLRDKVVIIDEFPYLIEEDKSILSTFQRIVDENRDSRTKLILLGSSISVMEDVLSYRSPLYGRRTASLKVGELKFRDLRHLGFSVEEAVKIYGFAGGVPMYLTRVTPPFLDWVNRELKRVDSFLRDEVDFLLRYEFREIGTYKEILRAISMGKNTLAEIRDYVKVGGEISSYIKKLERIELVTREVPVTESVRSKMGRYVIRDNFTNFWFRFVYPNLSLIEEGTYEITEGEYANYLGHVFERICREYVRDRYRVKKVGRQWWKDVEIDVMGLGNVKVAGECKWSEDVNPHSVLANLERKVERLGHTVDRYVVFARSFSTKEKMEKAELVDINDLNSWFMS”, “failed”.
Under “MIFMQTSSYHSVTSVIFDKNTQNHTSIAIWLLICCALVFAMVVVGGVTRLTGSGLSIVEWKPIVGTIPPISQGDWEILLEKYRQIPQYEQINKGMTLDEFKGIFWWEYFHRLLGRLIGLVYFVPFVYFMVRKRVDRVLGTKLLGIFVLGGLQGLMGWYMVMSGLADNVYVSQYRLTAHLGLAFIIYAAMFWVATGLLSPVNTHSADPASVRKLGRFARILTGLIFFMVLSGGLVAGIHAGKAYNTFPLMDGFFIPPALFVLEPWYRNFFDNITTVQFDHRMIAWLLMFTIPLFWFKARQLSLSWSGRLACHLLLIMLCTQVALGITTLLLSVPLTFAAAHQAGAVLLFTAALWVCRKLS” stands “failed”; under “MIFVIFAKKSVRFPGKHSAMINGRRMIDIVASKLKNHGEVILYSKDPELNCDMCRVVRDTTDGIITDSVLSAMDRFGTFFAVAGDMPFITDRIIEKILSSYDGKPTFPVHADGLIEPLFGIYTDAIYDAMRDYIESGGESLIGFLSMADIDRVPIAEEEEKFFVSVNYPEDIKKYADLLTLEHHHHHH”, “failed”.
Take “MIFVPIIGWLALFGYGVRLVNEFIEGRYEGPIKLDFMEDLKFGFMVFLKSLPFYIIYIIILFAAMYVSEGLGNIISLLLGFFVVPMLAVNFFRKQTVESFFEFSVLNVVRDNLGEYIITVLKQYALVIIFMVLSIVLVGIPGMLFTNSIFVANMYGRLVERKAEASL”: the protein production result was “failed”.
For the sequence “MIFWRLLQEFASTTIHGTKGICHADELIEKGQIDKAEQAVLTLLERKPNDANILHLAGVVALRKGQNSRAVALISKALEYAPNESLYYFNLGNAYLADGAIDLGIQALQDATRLDPERMEAWMNLGLALVEAKRHPEAVAAFERLLEIDPDHEADVAFASALVGAGIMLKESAMVDRGISVLESKLRDGYERYAAGVILARALEHRNRLSEAIRQHQALLEANPEHIGIRNNLARCLVQLGRVEEARTHYRLCVKSAPDKYHAFSALLAGLNYEPNLTAAMHEAEVRNWEKQLALPHYPVEPEFPNERDPERPLKIGYLSPDLRQHVVGHNFLPVLEHRNREQFSVFCYHIGEKQDDMSRRIAALADHWRHVHGASDDEVAALIREDRVDILVDLSGHTSHTQPLVFARKPAPVQVSWLGYFDTTGLATMDWFITDPYSSPPDQKQYFSERLYRMPHTRLYYHPYPDMPAVGQLPAKRNGYITFGCLNNLAKINTEVLDLWAQILAASPTSRLLIQTVALCDRLNLERFRALCVERGLDPARLELRPATSLEKFAQTYHQIDIALDPFPFCGGFTSFDALWMGVPVITLEQQRLAGRQTLSMLMNLGLPHLIASNKTDYVSIALELSRDSSEIEQLRSELRSRFLQSPLIDHCRFTRELEKAYRFFWSHWCTEKKQSSARKGISAPMDAYPSRRQISAT”, the protein production entry is recorded as “failed”.
Next, “MIGAVIEAGVGITAALISLIEDKQNFLKKYEVSLIILPILVIFFHSMLIVPIYVFSIISGTYLYSKKFYYPFLLLFVSVFLIYIVYGINYPWKSTDIAISAGMIVVMVFDSREKEYVKQNEMNRGTDRKKEIRRDYVQILAGAVIILLIYYYGIDVSRILVTFGSLVLYVTGNFLAGRPDLLLGKLLNSLERSSTKLGIGSLWFASGILIAYSLHDSTAVVMMIVFSIAVGDSLATIIGTSVSSPKLPINRKKSAAGSIAFFAASAAFAIFVLGYAGLFYAAVATITEAVSGFPLDDNLTVPFILSILAYVSKML”: “failed”; “MIGITGVTGKLGSKVAQLISEQGISARHLARNPQRAALYDNAELVQVAFENSLEAVEALKGIDVLLMVSASESPNRLQQHFAFLDAAHEAGVKHIVYTSFYNAATEATFTLARDHAKTEKYIKERGFTYTFLRDNFYLDFFLDLCLNNGEIRGPAGNGKVSAVARQDVSEVATTILAKPDKWKNQLLNMTGPADLSMADIVHFVSEQKGEIIPYIDESIEEAYASRKAWPAQDWEYDAWVSTYTAIKEGKQAGVSSDIERVLGRPATSLEQLVKTIK”: “failed”.
For the sequence “MIGITQAEAVLTIELQRPERRNALNSQLVEELTQAIRKAGDGSARAIVLTGQGTAFCAGADLSGDAFAADYPDRLIELHKAMDASPMPVVGAINGPAIGAGLQLAMQCDLRVVAPDAFFQFPTSKYGLALDNWSIRRLSSLVGHGRARAMLLSAEKLTAEIALHTGMANRIGTLADAQAWAAEIARLAPLAIQHAKRVLNDDGAIEEAWPAHKELFDKAWGSQDVIEAQVARMEKRPPKFQGA”, the protein production result is listed as “not failed”.
Under “MIGKPRGRRGVNLQILPSAMTVLSICAGLTAIKFALEHQPKAAMALIAAAAILDGLDGRVARILDAQSRMGAEIDSLADAVNFGVTPALVLYVSMLSKWPVGWVVVLLYAVCVVLRLARYNALQDDGTQPAYAHEFFVGMPAPAGAVSMIGLLALKMQFGEGWWTSGWFLSFWVTGTSILLVSGIPMKKMHAVSVPPNYAAALLAVLAICAAAAVLAPYLLIWVIIIAYMCHIPFAVRSQRWLAQHPEVWDDKPKQRRAVRRASRRAHPYRPSMARLGLRKPGRRL” stands “failed”.
Turning to “MIGNPVIQVPSSLMPSSSMIACPRVSPNGVPYLPPKPRTRHLVVRAASNSDAAHGQPSSDGGKNPLTVVLDVPRNIWRQTLKPLSDFGFGKRSIWEGGVGLFIVSGATLLALSWAWLRGFQMRSKFRKYQTVFELSHASGICTGTPVRIRGVTVGTIIRVNPSLKNIEAVAEIEDDKIIIPRNSLVEVNQSGLLMETMIDIMPRNPIPEPSVGPLHPECGKEGLIVCDRQTIKGVQGVSLDELVGIFTRIGREVEAIGVANTYSLAERAASVIEEARPLLKKIQAMAEDAQPLLSEFRDSGLLKEVECLTRSLTQASDDLRKVNSSIMTPENTELIQKSIYTLVYTLKNVESISSDILGFTGDEATRKNLKLLIKSLSRLL”, the protein production entry is listed as “failed”.
For “MIGRHHPILAWAAVVAIGGGVIVLGGIGLPGAGDWLSDWTRAITSRQAGFHRELGQAVRDLAGEGGGAAGVGLLIASLGYGVFHALGPGHGKAVIGAYAATTATGFRRAALLSLAAALIQATTAVVLVDGAFLVMRGGAHWANRTAERWLEPASYAAILGLGLYLGGRGLLAIVRAGRPSPGGDHRPTHPGQARDEEACAHCGHAHGPTADQVAKATEWRSAAMIALAVGIRPCSGAILVLVVANGLGLWAAGILAAYVMALGTAATVALLAVGARASRLPIAGLARRLPLSPALLGGLAGTLAGLILVVLAGLLLRASLLAPVHPLLG”, the protein production entry is on record as “failed”.
